Earlier results on one substance are cited in PMC10544997.

The target in this data set is FcγRIIa (Homo sapiens) (UniProt P12318).
Sequence of FcγRIIa (Homo sapiens) (P12318 34-317): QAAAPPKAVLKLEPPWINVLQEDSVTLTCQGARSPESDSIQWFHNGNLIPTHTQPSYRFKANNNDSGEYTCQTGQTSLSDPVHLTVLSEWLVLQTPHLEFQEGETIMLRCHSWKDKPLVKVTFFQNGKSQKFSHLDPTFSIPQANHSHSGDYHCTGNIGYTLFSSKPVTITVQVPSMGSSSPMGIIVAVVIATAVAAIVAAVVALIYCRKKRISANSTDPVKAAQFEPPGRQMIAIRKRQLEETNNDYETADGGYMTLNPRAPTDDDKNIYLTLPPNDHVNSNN

Usually Kd stands for a measure of binding affinity in units of concentration. For IgG1 Fc (from UniProt P01857), the Kd was 1000 nM.
